± gives the uncertainty stated by the source.
Assay: protein stability index of a GFP-peptide fusion (yeast GPS) (PSI 1-4); higher = more stable; sorted into four equal gates, so the index is relative within each strain
Procedure, shortened: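 Tiled 17-residue yeast protein peptides were fused downstream of GFP in a plasmid that also expresses Cherry, and the pooled library was carried in yeast. Mid-log cultures in leucine-free medium were sorted into four equal gates by GFP/Cherry fluorescence ratio, and plasmids from each gate were PCR-amplified and Illumina-sequenced, with reads assigned to strains by barcodes. The protein stability index for each peptide was each gate's read frequency times its gate number, summed.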

| Sequence | protein stability index (doa10∆) | protein stability index (pdr5∆) | protein stability index (san1∆) | protein stability index (ubr1∆) |
| --- | --- | --- | --- | --- |
| FLANHKDRLYCGKCHSV [RPS31] | 2.38 ± 0.17 | 2.61 ± 0.13 | 2.02 ± 0.16 | 2.69 ± 0.082 |
| LPGDMLAVCDELGNMTM [SIN4] | 2.76 ± 0.071 | 2.77 ± 0.072 | 2.78 ± 0.089 | 2.66 ± 0.085 |
| AAEGLCKLFLADVFTDD [YCG1] | 3.25 ± 0.061 | 3.26 ± 0.061 | 3.14 ± 0.043 | 3.14 ± 0.039 |
| RRANFYKENEAMLRENI [SNF12] | 3.29 ± 0.094 | 3.2 ± 0.14 | 3.33 ± 0.074 | 3.39 ± 0.11 |
| NDIPLGSGQPDNDTVVT [SRB8] | 3.3 ± 0.12 | 3.18 ± 0.16 | 2.51 ± 0.14 | 3.12 ± 0.28 |
| ILRQRGPGFKFVDLNEK [SRB4] | 2.57 ± 0.11 | 1.64 ± 0.076 | 1.44 ± 0.21 | 1.75 ± 0.079 |
| NRSAYDSKNTPNVFDKD [YDL088C/ASM4] | 2.41 ± 0.1 | 2.72 ± 0.075 | 2.9 ± 0.074 | 2.92 ± 0.091 |
| VIANPKGEMKGSAITGP [RPL23A] | 3.19 ± 0.13 | 3.22 ± 0.2 | 2.64 ± 0.14 | 2.91 ± 0.23 |
| LMLEDTDGDSILYYDVL [BRR2] | 2.85 ± 0.074 | 3.17 ± 0.092 | 3.12 ± 0.067 | 3.1 ± 0.058 |
| IRAIRKVISEILTREVQ [RPS1B] | 1.92 ± 0.07 | 1.65 ± 0.05 | 1.25 ± 0.08 | 1.67 ± 0.14 |
| EILNLSTQELQTRAKLL [RPT5] |  | 2.18 ± 0.18 | 3.04 ± 0.091 | 3.08 ± 0.085 |
| MISEVPSVAAEYVYFFN [RPC40] | 1.53 ± 0.11 | 1.13 ± 0.091 | 1.23 ± 0.11 | 1.07 ± 0.079 |
| SPNRLRVRTDDSVLLNR [YML031W/NDC1] | 2.78 ± 0.22 | 3.25 ± 0.21 | 2.99 ± 0.14 |  |
| MPDMNEMMKMMQDPQMQ [SRP54] | 3.22 ± 0.19 | 3.45 ± 0.21 | 3.5 ± 0.083 | 3.33 ± 0.084 |
| LFDEFGNLIGVDPFDSD [SNU114] | 3.12 ± 0.078 | 3.04 ± 0.069 | 2.87 ± 0.069 | 3.17 ± 0.058 |
| FHESGSQYSTMVNIGLH [RGR1] | 3.19 ± 0.12 | 3.19 ± 0.11 | 2.7 ± 0.18 | 3.27 ± 0.14 |
| GKTTSCTKLAVYYSKRG [SRP54] |  | 2.76 ± 0.19 | 2.18 ± 0.22 | 2.51 ± 0.098 |
| SFNCENFFQAPQDYVLE [YML031W/NDC1] | 3.07 ± 0.079 | 3.06 ± 0.082 | 3.09 ± 0.07 | 3.11 ± 0.067 |
| DVVERLHKNFESENFKI [RGR1] | 3.74 ± 0.18 | 3.4 ± 0.3 | 3.23 ± 0.18 | 3.81 ± 0.18 |
| KDIVNISIPKTCDEIQN [REC8] | 2.81 ± 0.067 | 2.74 ± 0.056 | 2.54 ± 0.05 | 2.84 ± 0.042 |
| NIWLNNKIINWEISNPD [NUT1] | 2.48 ± 0.076 | 2.56 ± 0.057 | 2.71 ± 0.11 | 2.56 ± 0.077 |
| SKVREEVGDVCINELDN [RPO31] | 3.15 ± 0.095 | 2.32 ± 0.06 | 2.84 ± 0.075 | 3.18 ± 0.065 |
| QALDAVRMRLAQLTHSL [MED8] | 1.58 ± 0.04 | 1.58 ± 0.047 | 1.54 ± 0.065 | 1.5 ± 0.035 |
| EEELFQEMIEISNVIKP [SRP54] | 3.04 ± 0.077 | 3.28 ± 0.066 | 3.34 ± 0.064 | 3.37 ± 0.13 |
| AENLLQLKTGLAAIVST [YGL172W/NUP49] |  | 3.3 ± 0.19 | 2.99 ± 0.087 | 2.5 ± 0.2 |

| Sequence | protein stability index (doa10∆) | protein stability index (pdr5∆) | protein stability index (san1∆) | protein stability index (ubr1∆) |
| --- | --- | --- | --- | --- |
| NIKHKHTSIRETLENGE [SMC2] | 1.46 ± 0.12 | 1.74 ± 0.21 | 1.54 ± 0.2 | 1.68 ± 0.24 |
| TPNVNVLVLHGDKDTRA [ISW2] | 2.63 ± 0.05 | 2.36 ± 0.05 | 2.32 ± 0.08 | 2.81 ± 0.05 |
| HFGHCFNITDNGVRALF [GRR1] | 2.07 ± 0.18 | 2.65 ± 0.13 |  | 2.64 ± 0.1 |
| IVKNAEQHNLVKKGPVR [RPS20] | 2.84 ± 0.058 | 3.13 ± 0.066 | 2.9 ± 0.072 | 2.95 ± 0.078 |
| GVSSPGFSPTSPTYSPT [RPO21] | 2.82 ± 0.069 | 3 ± 0.058 | 2.82 ± 0.057 | 3.05 ± 0.055 |
| RLWHTLKYYQDLKNTRM [SNF5] | 1.77 ± 0.057 | 2.02 ± 0.048 | 2.01 ± 0.06 | 1.7 ± 0.051 |
| IGVRCYEAYPNTSLPPS [FAS1] | 2.29 ± 0.036 | 2.33 ± 0.032 | 2.59 ± 0.034 | 2.54 ± 0.028 |
| IEDLWQFLYEKHYKNIP [RPC82] | 2.23 ± 0.088 | 1.53 ± 0.078 | 1.62 ± 0.19 | 2.1 ± 0.071 |
| ACVPLLPPPEDVAFLKT [RPN1] | 2.65 ± 0.053 | 2.4 ± 0.053 | 2.79 ± 0.043 | 2.65 ± 0.048 |
| QPVLEKPLKKGSADIGA [SIR4] | 3.16 ± 0.078 | 3.1 ± 0.061 | 3.08 ± 0.042 | 2.94 ± 0.055 |
| LEVVQYIEDGRNPDIYT [NUT2] | 3.14 ± 0.059 | 3.25 ± 0.049 | 3.15 ± 0.042 | 3.27 ± 0.039 |
| PAGKQVEISLVNGAKNL [FAS1] | 2.63 ± 0.27 | 3.23 ± 0.23 |  | 2.31 ± 0.19 |
| KGTNGKKALKVRTSATF [RPL25] | 3.15 ± 0.13 | 3.03 ± 0.12 | 3.06 ± 0.13 | 3.3 ± 0.068 |
| KVENLDYMYENGKLTSA [YML031W/NDC1] | 3.59 ± 0.25 | 3.3 ± 0.12 | 3.04 ± 0.12 |  |
| SQISKAEMEADSLASEL [SMC4] | 2.75 ± 0.08 | 3.31 ± 0.16 | 3.27 ± 0.071 | 2.82 ± 0.16 |
| NKSSVRPTGGANMATVP [MED6] | 2.69 ± 0.063 | 2.79 ± 0.074 | 2.71 ± 0.1 | 2.83 ± 0.057 |
| ITHKLTKNDAGSKQILK [BRR2] | 3.07 ± 0.071 | 3.43 ± 0.079 | 3.21 ± 0.036 | 3.23 ± 0.055 |
| MSETLPRSDDLEATWNF [CDC53] | 3.05 ± 0.17 | 3.39 ± 0.15 |  | 2.81 ± 0.15 |
| TSPGYSPGSPAYSPKQD [RPO21] | 2.31 ± 0.087 | 2.1 ± 0.063 | 2.39 ± 0.11 | 1.77 ± 0.05 |
| EIFKKGYIKNNKKIYQW [POP6] | 3.46 ± 0.24 |  |  |  |
| RYRVDLLNTDHTLDPSL [RPO21] | 3.09 ± 0.072 | 2.95 ± 0.053 | 2.92 ± 0.05 | 2.9 ± 0.062 |
| TPMGGFVHYGEIKNDFI [RPL3] | 3.32 ± 0.093 | 3.19 ± 0.092 | 3.27 ± 0.12 | 3.28 ± 0.078 |
| AQAAQAAQAQAQAQAQA [GAL11] | 2.53 ± 0.041 | 2.87 ± 0.046 | 2.71 ± 0.034 | 2.82 ± 0.044 |
| PSLNNKISDDELERILK [RPB4] | 3.09 ± 0.096 | 2.9 ± 0.098 | 3.06 ± 0.09 | 3.21 ± 0.07 |
| VGKVMNKNQETAISVAK [RPT6] |  | 3.55 ± 0.21 | 3.23 ± 0.082 | 3.4 ± 0.11 |

| Sequence | protein stability index (doa10∆) | protein stability index (pdr5∆) | protein stability index (san1∆) | protein stability index (ubr1∆) |
| --- | --- | --- | --- | --- |
| KWGRNQPVNINLDSSIT [YMR129W/POM152] | 2.54 ± 0.094 | 2.7 ± 0.076 | 2.71 ± 0.099 | 2.52 ± 0.07 |
| KGSRKSSKAATPDTKNF [SNF12] | 3 ± 0.063 | 2.87 ± 0.052 | 3 ± 0.058 | 2.98 ± 0.042 |
| EKRWNDELELEDAIHIA [PRE8] | 3.35 ± 0.17 | 3.25 ± 0.1 | 3.26 ± 0.13 | 3.23 ± 0.2 |
| IDTDLFGAPNNPNSTAI [YGL172W/NUP49] | 2.8 ± 0.075 | 2.78 ± 0.063 | 2.91 ± 0.053 | 2.59 ± 0.053 |
| NNNVTAVPAATPANTNN [SWI1] | 2.79 ± 0.046 | 3.08 ± 0.046 | 2.76 ± 0.032 | 2.98 ± 0.042 |
| GPPQSLYGLNLTLRKAK [FAS1] | 2.81 ± 0.064 | 2.15 ± 0.065 | 3.32 ± 0.06 | 2.42 ± 0.051 |
| DNVSGLTRNAPLDSKDE [SNF2] | 2.95 ± 0.063 | 3.25 ± 0.051 | 3 ± 0.04 | 3.13 ± 0.043 |
| LNEIELDNLKLKELRID [GRR1] | 3.28 ± 0.097 | 3.09 ± 0.11 | 3.18 ± 0.054 | 2.85 ± 0.092 |
| FNSVQKKSRSNLSQEND [YAR002W/NUP60] | 2.81 ± 0.09 | 2.85 ± 0.071 | 2.49 ± 0.1 | 3.12 ± 0.12 |
| EHGLHAPAYAWSHNGPF [CYT1] | 2.83 ± 0.11 | 3 ± 0.073 | 2.52 ± 0.087 | 2.87 ± 0.054 |
| TATIINNESSDDMDIDE [PCI8] | 3.1 ± 0.097 | 3.17 ± 0.07 | 3.02 ± 0.095 | 3.31 ± 0.056 |
| VDVAIPCNNRGKHSIGL [RPS0A] | 2.81 ± 0.096 | 2.91 ± 0.1 | 3.09 ± 0.067 | 3.07 ± 0.11 |
| GFANSLTFILGQLLSVK [YML031W/NDC1] | 1.13 ± 0.13 | 1.46 ± 0.18 | 1.2 ± 0.22 | 1.26 ± 0.12 |
| ESLKKELQIFKTANSSS [YIL149C/MLP2] | 2.78 ± 0.065 | 2.93 ± 0.049 | 2.9 ± 0.059 | 2.61 ± 0.042 |
| LKTNFETEWNLQTLAAD [RPB11] | 2.79 ± 0.13 | 2.91 ± 0.11 | 2.53 ± 0.079 | 2.67 ± 0.1 |
| EQYIQELDKREDMIDQV [SMC3] | 3.23 ± 0.065 | 3.03 ± 0.084 | 3.01 ± 0.072 | 3.29 ± 0.15 |
| TKYTDDMATGSNDTTAF [SRB8] | 3.04 ± 0.086 | 3.14 ± 0.087 | 3.45 ± 0.057 | 3.29 ± 0.058 |
| YHSKRDASTPLRSTENG [RPB2] | 3.12 ± 0.1 | 3.32 ± 0.071 | 3.12 ± 0.055 | 3.33 ± 0.05 |
| IDEVDSIATKRFDAQTG [RPT3] | 3.12 ± 0.12 | 3.18 ± 0.076 | 2.93 ± 0.075 | 3.38 ± 0.1 |
| WPIVNSKVYFNNQSKEK [RPN12] | 2.87 ± 0.15 | 2.78 ± 0.15 | 2.67 ± 0.21 | 3.03 ± 0.13 |
| SKKRFAAIWTLCKTKMV [RPO21] | 1.75 ± 0.048 | 1.53 ± 0.049 | 1.24 ± 0.099 | 1.57 ± 0.032 |
| KNREVVQVSKAGGLPMD [RRP45] | 3.04 ± 0.11 | 2.84 ± 0.097 | 2.54 ± 0.095 | 3.28 ± 0.067 |
| FSFGTSQPNNTPSFSFG [YLR335W/NUP2] | 2.81 ± 0.048 | 2.73 ± 0.047 | 2.88 ± 0.053 | 2.59 ± 0.037 |
